The values below come from US20100172900A1 (Bristol-Myers Squibb, published 2010).

Experiment [1] has as its target T1, recombinant human BTLA fusion protein (human, UniProt Q7Z6A9 31-156).
T1 construct: also called BTLA-Ig; BTLA Ig antigen; not shown: Ig fusion partner
The experiment is described as follows: Biacore, BTLA fusion protein coupled to CM5 chip, antibody flowed at 267 nM. The method, then: Anti-BTLA antibodies were characterized for affinities and binding kinetics by Biacore analysis (Biacore AB, Uppsala, Sweden). Purified recombinant human BTLA fusion protein was covalently linked to a CM5 chip (carboxy methyl dextran coated chip) via primary amines, using standard amine coupling chemistry and kit provided by Biacore. Binding was measured by flowing the antibodies in HBS EP buffer (provided by Biacore AB) at a concentration of 267 nM at a flow rate of 50 μl/min. The antigen-antibody association kinetics was followed for 3 minutes and the dissociation kinetics was followed for 7 minutes. The association and dissociation curves were fit to a 1:1 Langmuir binding model using BIAevaluation software (Biacore AB). To minimize the effects of avidity in the estimation of the binding constants, only the initial segment of data corresponding to association and dissociation phases were used for fitting.

Experiment [2] concerns the target T2, recombinant human BTLA expressed at the cell surface of CHO cells (human, UniProt Q7Z6A9 31-289).
T2 construct: also called BTLA-CHO cells; BTLA CHO cells
The experiment is described as follows: FACS blocking assay: antibody pre-incubated with BTLA-CHO cells, then 0.5 ug/ml biotin HVEM Ig, streptavidin-PE detection. The method, then: The ability of BTLA Mabs to block binding of BTLA to HVEM was also determined by FACS, and is expressed as the concentration of anti-BTLA IgG to block half the maximal binding of HVEM Ig to 10⁵ BTLA CHO cells (IC₅₀). BTLA CHO cells and antibody at various concentrations were pre-incubated for 30 minutes at 4° C., and then 0.5 ug/ml biotin labeled HVEM Ig (R & D Systems BAF 356) was added to the BTLA CHO-IgG mix and incubated for another 30 minutes. Cells were washed 2× in PBS-1% BSA, and binding of biotin HVEM Ig was detected by FACS after staining the cells with streptavidin-PE (BD Parmingen 3554061). IC₅₀ values were determined graphically using the Prism software (GraphPad Software). Results are depicted in FIG. 28B and FIG. 28C.

In a further experiment the target is T3, TrkB-Ig (human, UniProt Q16620).
T3 construct: extracellular domain
Briefly: ELISA, plate coated with receptor-Ig fusion, antibody at 1 ug/mL, HRP-conjugated detection antibody. How it is done:
(§1) ELISA plates were coated overnight with fusion proteins consisting of the extracellular domains of a panel of CD28 receptor family molecules fused to the Fc portion of human IgG (Table 4). The plates were washed and blocked to minimize non-specific binding. A panel of anti-BTLA antibodies and isotype control antibodies (Table 5), and positive control detection antibodies (Table 3), all diluted to 1 ug/mL, were added in duplicate to the assay plates for one hour. After extensive washing the appropriate HRP-conjugated detection antibodies were added to the plates for one hour followed by washing and development using 3, 3′, 5, 5′-tetramethylbenzidine (TMB) as substrate. Optical density measurements at 650 nm were recorded.

The next experiment concerns the target PD1-Ig. The experiment is described as above. The method, then: as §1
For a further experiment, the target named is T4, CTLA4-Ig (human, UniProt P16410).
T4 construct: extracellular domain
Described as above. The method, then: as §1

Experiment [3] has as its target T1, recombinant human BTLA fusion protein. The experiment is described as follows: Biacore 3000, antibody captured by anti-CH1, BTLA fusion protein 200 nM in solution. The method, then: The binding of the 1B4, E4H9, 3C2, 6A5, 11E2 and 10116 antibodies to recombinant BTLA protein was examined by BIAcore™ using an antibody capture method. Each of the six anti-BTLA monoclonal antibodies were captured using anti-CH1, a reagent antibody that is specific towards the heavy chain constant region 1 of human antibody (Zymed, Clone HP6045, Stock conc. 1.0 mg/mL). Anti-CH1 was coated on a CM5 chip (BR-1000-14, Research Grade) at high density (6200-7960 RUs). The coating was carried out based on the standard immobilization procedure recommended by the manufacturer. The 1B4, E4H9, 3C2, 6A5, 11E2 and 10116 purified antibodies, with concentrations ranging from 1-10 μg/mL, were each then captured on the anti-CH1 coated chip surface at a flow-rate of 10 μl/min for 0.5-1 minute. A single concentration of recombinant human BTLA fusion protein (200 nM) was injected over captured antibody for 4 minutes at a flow rate of […]. The antigen was allowed to dissociate for 10 minutes. The chip surface was regenerated after each cycle with 10 μL of 30 mM NaOH, followed by 30 μl of HBS EP wash. Isotype controls were run on the chip, and the data used to subtract non-specific binding. All the experiments were carried out on a Biacore 3000 surface plasmon resonance instrument, using BIAcore Control software v 3.2. Data analysis was carried out using BiaEvaluation v3.2 software.

Experiment [4] addresses T2, recombinant human BTLA expressed at the …. Briefly: flow cytometry on BTLA-transfected CHO cells, PE anti-human IgG detection, MFI against log nM IgG. How it is done:
Chinese hamster ovary (CHO) cell lines that express recombinant human BTLA at the cell surface were developed and used to determine the specificity of BTLA human monoclonal antibodies by flow cytometry. CHO cells were transfected with expression plasmids containing full length cDNA encoding transmembrane forms of BTLA. Binding of the anti-BTLA human monoclonal antibodies was assessed by incubating the transfected cells with the anti-BTLA human monoclonal antibodies at a concentration from 0.01 nM to 66 nM. The antibodies were incubated with 10⁵ BTLA CHO cells for 60 minutes at 4° C. in PBS1% BSA. […] The EC₅₀ was determined graphically by plotting the mean flourescence intensity (MFI) versus the log of the antibody concentration using Prism graphing software (GraphPad software). Flow cytometric analyses were performed using a FACSArray flow cytometry (Becton Dickinson, San Jose, Calif.). The results are depicted in FIG. 28A.

A further experiment has as its target T5, ICOS-Ig (human, UniProt Q9Y6W8).
T5 construct: extracellular domain
T5 sequence (fusion chain, looked up): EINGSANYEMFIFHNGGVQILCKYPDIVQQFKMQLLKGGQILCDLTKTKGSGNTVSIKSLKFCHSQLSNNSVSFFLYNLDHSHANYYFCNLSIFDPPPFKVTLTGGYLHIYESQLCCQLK
Briefly: ELISA, plate coated with receptor-Ig fusion, antibody at 1 ug/mL, HRP-conjugated detection antibody. The method, then: as §1

A further experiment concerns the target T6, CD28-Ig (human, UniProt P10747).
T6 construct: extracellular domain
The description is as above. The method, then:
as §1

Chain of PD1-Ig (chain, as listed by the source limits assumed): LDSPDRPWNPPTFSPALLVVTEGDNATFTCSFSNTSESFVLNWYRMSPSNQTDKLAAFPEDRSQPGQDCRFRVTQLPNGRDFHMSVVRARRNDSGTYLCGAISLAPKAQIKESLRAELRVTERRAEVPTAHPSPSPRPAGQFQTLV
T2 sequence (Q7Z6A9 31-289 R157S limits assumed): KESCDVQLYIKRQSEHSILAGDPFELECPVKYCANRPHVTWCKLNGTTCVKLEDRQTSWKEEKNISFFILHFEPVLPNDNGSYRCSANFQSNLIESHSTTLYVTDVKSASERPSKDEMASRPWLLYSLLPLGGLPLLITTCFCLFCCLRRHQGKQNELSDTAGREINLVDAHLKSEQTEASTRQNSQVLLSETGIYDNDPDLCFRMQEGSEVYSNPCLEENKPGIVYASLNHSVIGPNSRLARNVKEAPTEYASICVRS
T4 sequence (P16410 36-161): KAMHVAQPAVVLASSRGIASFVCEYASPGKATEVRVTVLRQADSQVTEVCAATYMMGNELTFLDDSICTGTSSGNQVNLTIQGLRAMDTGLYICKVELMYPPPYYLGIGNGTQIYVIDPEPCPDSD
T1 sequence (Q7Z6A9 other isoform, or with tags, fused parts or gaps): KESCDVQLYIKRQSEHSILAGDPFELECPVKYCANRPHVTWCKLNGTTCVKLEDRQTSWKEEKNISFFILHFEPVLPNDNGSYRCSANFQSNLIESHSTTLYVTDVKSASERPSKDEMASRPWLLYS

B1: 1B4 human monoclonal antibody (antibody, IgG1, V domains shown)
VH: QITLKESGPTLVKPTQTLTLTCTFSGFSLNTIGVGVNWIRQPPGKALEWLALIYWDDDKRYSPSLKRRLTISKDTSKNQVVLTMTNMDPVDTATYYCAHSGITEVRGVIIHYYGMDVWGQGTTVTVSS
VL: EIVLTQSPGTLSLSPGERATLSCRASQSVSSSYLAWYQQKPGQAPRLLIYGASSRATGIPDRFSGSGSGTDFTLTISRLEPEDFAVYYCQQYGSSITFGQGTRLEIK
notes: human antibody purified from hybridoma, kappa light chain (VK A27)
As to B1, the Kd in experiment [1] came out at 2.88 nM; in experiment [3] it was 5.74 nM. Besides, the IC50 in experiment [2] was 1.9 nM. For the same molecule, the binding result with TrkB-Ig, with PD1-Ig and with CTLA4-Ig was “no binding (tested: 1 ug/mL)” in each case. For the same molecule, the koff in experiment [3] is 0.000284 s⁻¹. In addition, the kon in [3] was determined as 49400 M⁻¹ s⁻¹. Moreover, the EC50 in experiment [4] is 1.34 nM.

B2: 6A5 human monoclonal antibody (antibody, V domains shown)
VH: QITLKESGPTLVKPTQTLTLTCTFSGFSLSTSGVGVGWIRQPPGKALEWLALIYWDDDKRYSPSLKSRLTITKDTSKNQVVLTMANMDPVDTATYYCAHIRITEVRGVIISYYGMDVWGQGTTVTVSS
VL: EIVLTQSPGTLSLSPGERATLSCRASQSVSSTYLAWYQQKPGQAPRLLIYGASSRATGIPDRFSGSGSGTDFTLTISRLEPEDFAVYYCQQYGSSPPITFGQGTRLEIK
notes: kappa light chain (VK A27)
As to B2, the binding result in the experiment with TrkB-Ig, with PD1-Ig and in the experiment with CTLA4-Ig was “no binding (tested: 1 ug/mL)” in each case.

B3: 11-E8D9 (antibody, V domains shown)
VH: QITLKESGPTLVKPTQTLTLTCTFSGFSLSTSGVGVGWIRQPPGKALEWLALIYWDDDKRYSPSLKSRLTITKDTSKNQVVLTMTNMDPVDTATYYCAHTSITEVRGAIIYYYGMDVWGQGTTVTVSS
VL: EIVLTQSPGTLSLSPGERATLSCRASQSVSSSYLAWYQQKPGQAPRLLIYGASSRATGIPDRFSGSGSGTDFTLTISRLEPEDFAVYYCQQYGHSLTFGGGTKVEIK
notes: also called 11E8D9.3; E8D9 human monoclonal antibody
On to B3, for which the IC50 in experiment [2] is 0.34 nM. Also, the binding result in the experiment with TrkB-Ig, in the experiment with PD1-Ig and with CTLA4-Ig was “no binding (tested: 1 ug/mL)” throughout. In addition, the EC50 in experiment [4] is 0.373 nM.

B4: 11-4C9 (antibody, V domains shown)
VH: QITLKESGPTLVKPTQTLTLTCTFSGFSLSTSGVGVAWIRQPPGKALEWLALIYWDDDKRYSPSLKSRLTITKDTSKNQVVLTMSNMDPVDTATYYCAHTRIAEVRGVIYYYYGIDVWGQGTTVTVSS
VL: EIVLTQSPGTLSLSPGERATLSCRASQSVSSTYLVWYQQKPGQAPRLLIYGASSRATGIPDRFSGSGSGTDFTLTISRLEPEDFAVYYCQQYGSSWTFGQGTKVEIK
notes: The prefix 11- appears only on the sheets; also called 4C9 human monoclonal antibody
As for B4, the IC50 in experiment [2] turned out to be 1.02 nM. Also, in experiment [4], the EC50 amounted to 1.56 nM.

B5: 10H6 human monoclonal antibody (antibody, V domains shown)
VH: QVQLVESGGGVVQPGRSLRLSCAASGFTFSSYDMHWVRQAPGKGLEWVAAIWNDGSNKYYADSVKGRFTISRDNSKNTLYLQMNSLRAEDTAVYYCARDRITMVRGVITQYYGMDVWGQGTTVTVSS
VL: DIQLTQSPSSLSASVGDRVTITCRVSQGISSYLNWYRQKPGKVPKLLIYSASNLQSGVPSRFSGSGSGTDFTLTISSLQPEDVATYYGQRTYNAPYTFGQGTKLEIK
As to B5, the IC50 in experiment [2] was found to be 2.13 nM. Also, in [3], the dissociation constant (Kd) came out at 3.82 nM, the koff turned out to be 0.000153 s⁻¹ and the kon came to 40000 M⁻¹ s⁻¹. In addition, the EC50 in experiment [4] is 1.89 nM.

B6: 3C2 human monoclonal antibody (antibody, IgG1, V domains shown)
VH: QVQLQESGPGLVKPSETLSLTCTISGGSISNYYWNWIRQPPGKGLEWIGYIYYSTSTKYNPSLKSRVTMSVETSKNQFSLKLSSVTAADTAVYYCARVKVYSTGWFFDYWGQGTLVTVSS
VL: AIQLTQSPSSLSASVGDRVTITCRASQGISSALAWYQQKPGKAPKLLIYDASSLESGVPSRFSGSGSGTDFTLTISSLQPEDFATYYCQQFNSYPLTFGGGTKVEIK
Take B6: the values for the Kd in experiment [1] and in experiment [3] were 0.88 nM and 6.65 nM, respectively. Besides, the IC50 in experiment [2] worked out at 1.97 nM. Further, the binding result in the experiment with TrkB-Ig, with ICOS-Ig, with PD1-Ig, with CTLA4-Ig and with CD28-Ig was “no binding (tested: 1 ug/mL)” each time. Besides, in experiment [3], the koff is 0.000301 s⁻¹. The kon in experiment [3] worked out at 45200 M⁻¹ s⁻¹. The EC50 in experiment [4] turned out to be 1.78 nM.

B7: 11E2 human monoclonal antibody (antibody, IgG1, V domains shown)
VH: EVQLVESGGGVIRPGGSLRLSCAASGFTFDDYGMSWVRQAPGKGLEWVSGINWNGGSTGYAASVKGRFTISRDNAKNSLYLQMNSLRAEDSALYYCARDYYYGPGSPNYFYYAMDVWGQGTTVTVSS
VL: DIQMTQSPSSLSASVGDRVTITCRASQGISSWLAWYQQKPEKAPKSLIYAASSLQSGVPSRFSGSGSGTDFTLTISSLQPEDFATYYCQQYNSYPRTFGQGTKVEIK
notes: kappa light chain (VK L15)
In the case of B7, the Kd in [1] stood at 0.61 nM. Moreover, the IC50 in experiment [2] was determined as 2.73 nM. Further, the binding result with TrkB-Ig, with ICOS-Ig, in the experiment with PD1-Ig, with CTLA4-Ig and with CD28-Ig was “no binding (tested: 1 ug/mL)” each time. Besides, the EC50 in experiment [4] amounted to 3.25 nM.

B8: E4H9 human monoclonal antibody (antibody, V domains shown)
VH: QVTLRESGPALVKPTQTLTLTCTFSGFSLSTSGMCVSWIRQPPGKALEWLALIDWDDVKYYSSSLKTRLTISKDTSKNQVVLTMTDMDPVDTATYYCARIRFTMFRGVYYYYYGLDVWGQGTTVTVSS
VL: not shown
notes: kappa light chain (VK A27)
B8: the Kd in experiment [1] was determined as 0.13 nM; in experiment [3], 0.006 nM. Also, in experiment [2], the IC50 worked out at 1.05 nM. The binding result with TrkB-Ig, with PD1-Ig and in the experiment with CTLA4-Ig was “no binding (tested: 1 ug/mL)” throughout. The dissociation rate constant (koff) in experiment [3] is 3e-07 s⁻¹. Further, the on-rate (kon) in experiment [3] was 45700 M⁻¹ s⁻¹. Besides, the EC50 in experiment [4] came out at 1.55 nM.
